In publication PMC9365860 (Cell Reports, 2022):
Where two headings read alike, the source gives them in different places.

B1: P008_60 IgG (antibody, V domains shown)
VH: EVQLVESGGGVVQPGRSLRLTCAASGFIFSSYGMHWVRQAPGKGLEWVAVISYDGSYKYYADSVKGRFTISRDNSKNTLYLQMNSLRAEDTAVYYCTKADYYDFWSGYQKTYYYYMDVWGKGTTVTISS
VL: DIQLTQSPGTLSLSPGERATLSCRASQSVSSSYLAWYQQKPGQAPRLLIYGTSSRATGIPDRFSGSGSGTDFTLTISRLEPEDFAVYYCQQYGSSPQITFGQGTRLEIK
notes: also called mAb P008_60; P008_060; source: HEK-293F, co-transfected heavy and light plasmids, purified (protein G)
B2: VA14_47 (antibody, V domains shown)
VH: EVQLVESGGGVVQPGRSLRLSCGGSGFTFSSHAMHWVRQAPGKGLEWVAVISYDGSYQYYADSVKGRFTISRDNSKNALYLQMNSLRVEDTAIYYCARDTPDLETYYFDCWGQGTLVTVSS
VL: EIVMTQSPGTLSLSPGERATLSCRASQSVSSSYLAWYQQKPGQAPRLLIYSACSRATGIPDRFSGSGSGTDFTLTISRLEPEDFAVYYCQQYGDSPRGSFGQGTKVDIK

What was measured:
[1] = biological target: T1, Recombinant S1 Wuhan (residues 1–674) (SARS-CoV-2, UniProt P0DTC2); test: ELISA; conditions: both partners purified
T1 construct: source: bought: Native Antigen Company

[2] = biological target: T2, Full-length MERS Spike on HEK 293T cells (MERS-CoV, isolate  (entry: …, UniProt K9N5Q8)); test: flow cytometry on cells; conditions: one partner purified
T2 construct: source: HEK293T, transfected (pcDNA3.1+), on the cell surface

[3] = biological target: T3, Full-length 229E Spike on HEK 293T cells (human coronavirus 229E, isolate not …, UniProt P15423); test: flow cytometry on cells; conditions: one partner purified
T3 construct: source: HEK293T, transfected (pcDNA3.1+), on the cell surface

[4] = biological target: T4, Full-length SARS-CoV-2 Spike on HEK 293T cells (SARS-CoV-2, UniProt P0DTC2); test: flow cytometry on cells; conditions: one partner purified
T4 construct: source: HEK293T, transfected (pcDNA3.1+), on the cell surface

[5] = biological target: T5, Full-length NL63 Spike on HEK 293T cells (human coronavirus NL63, isolate not …, UniProt Q6Q1S2); test: flow cytometry on cells; conditions: one partner purified
T5 construct: source: HEK293T, transfected (pcDNA3.1+), on the cell surface

[6] = biological target: T6, Full-length SARS-CoV-1 Spike on HEK 293T cells (SARS-CoV-1 (SARS-CoV), isolate not …, UniProt P59594); test: flow cytometry on cells; conditions: one partner purified
T6 construct: source: HEK293T, transfected (pcDNA3.1+), on the cell surface

[7] = biological target: T7, Full-length OC43 Spike on HEK 293T cells (human coronavirus OC43, isolate not …, UniProt P36334); test: flow cytometry on cells; conditions: one partner purified
T7 construct: source: HEK293T, transfected (pcDNA3.1+), on the cell surface

[8] = biological target: T4, Full-length SARS-CoV-2 Spike on HEK …
[9] = biological target: T1, Recombinant S1 Wuhan (residues 1–674)
[10] = biological target: Recombinant stabilized SARS-CoV-2 spike for ELISA (Wuhan) (SARS-CoV-2, Wuhan, UniProt P0DTC2, stabilised)
[11] = biological target: T6, Full-length SARS-CoV-1 Spike on HEK …

Row | Binder | binding result [1] | binding result [2] | binding result [3] | binding result [4] | binding result [5] | binding result [6] | binding result [7] | binding result [8] | binding result [9] | binding result [10] | binding result [11]
1 | B1 | binds | no binding (tested: 25 μg/mL) | no binding (tested: 25 μg/mL) | binds | no binding (tested: 25 μg/mL) | binds | no binding (tested: 25 μg/mL) |  |  |  | 
2 | B2 |  |  |  |  |  |  |  | binds | binds | binds | binds
